Values quoted from earlier work in article PMC11970764.

Target: HIF-1α PAS-B (Homo sapiens) (UniProt Q16665)
Test: ITC

UniProt Q16665, sequence (Q16665 238-349): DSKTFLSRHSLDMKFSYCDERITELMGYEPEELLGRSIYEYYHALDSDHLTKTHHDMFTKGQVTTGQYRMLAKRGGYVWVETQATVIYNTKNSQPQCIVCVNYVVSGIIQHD

For Cyclo-C(TAT)LLFVY, the Kd is given as 124 nM.
